The chains are these.
B1: BTN2A1 (309–527) wild type (domain or fragment, human, UniProt Q7KYR7 309-527, looked up)
chain: QVKEKLQEELRWRRTFLHAVDVVLDPDTAHPDLFLSEDRRSVRRCPFRHLGESVPDNPERFDSQPCVLGRESFASGKHYWEVEVENVIEWTVGVCRDSVERKGEVLLIPQNGFWTLEMHKGQYRAVSSPDRILPLKESLCRVGVFLDYEAGDVSFYNMRDRSHIYTCPRSAFSVPVRPFFRLGCEDSPIFICPALTGANGVTVPEEGLTLHRVGTHQSL
B2: BTN2A1 (271–527) wild type (domain or fragment, human, UniProt Q7KYR7 271-527, looked up)
chain: KLQKEKKILSGEKEFERETREIALKELEKERVQKEEELQVKEKLQEELRWRRTFLHAVDVVLDPDTAHPDLFLSEDRRSVRRCPFRHLGESVPDNPERFDSQPCVLGRESFASGKHYWEVEVENVIEWTVGVCRDSVERKGEVLLIPQNGFWTLEMHKGQYRAVSSPDRILPLKESLCRVGVFLDYEAGDVSFYNMRDRSHIYTCPRSAFSVPVRPFFRLGCEDSPIFICPALTGANGVTVPEEGLTLHRVGTHQSL
B3: BTN2A1 (271–527) W320A (domain or fragment, human, UniProt Q7KYR7 271-527, looked up)
chain: KLQKEKKILSGEKEFERETREIALKELEKERVQKEEELQVKEKLQEELRARRTFLHAVDVVLDPDTAHPDLFLSEDRRSVRRCPFRHLGESVPDNPERFDSQPCVLGRESFASGKHYWEVEVENVIEWTVGVCRDSVERKGEVLLIPQNGFWTLEMHKGQYRAVSSPDRILPLKESLCRVGVFLDYEAGDVSFYNMRDRSHIYTCPRSAFSVPVRPFFRLGCEDSPIFICPALTGANGVTVPEEGLTLHRVGTHQSL
B4: BTN2A1 (271–527) L318G (domain or fragment, human, UniProt Q7KYR7 271-527, looked up)
chain: KLQKEKKILSGEKEFERETREIALKELEKERVQKEEELQVKEKLQEEGRWRRTFLHAVDVVLDPDTAHPDLFLSEDRRSVRRCPFRHLGESVPDNPERFDSQPCVLGRESFASGKHYWEVEVENVIEWTVGVCRDSVERKGEVLLIPQNGFWTLEMHKGQYRAVSSPDRILPLKESLCRVGVFLDYEAGDVSFYNMRDRSHIYTCPRSAFSVPVRPFFRLGCEDSPIFICPALTGANGVTVPEEGLTLHRVGTHQSL
B5: BTN2A1 (271–527) L318GW320A (domain or fragment, human, UniProt Q7KYR7 271-527, looked up)
chain: KLQKEKKILSGEKEFERETREIALKELEKERVQKEEELQVKEKLQEEGRARRTFLHAVDVVLDPDTAHPDLFLSEDRRSVRRCPFRHLGESVPDNPERFDSQPCVLGRESFASGKHYWEVEVENVIEWTVGVCRDSVERKGEVLLIPQNGFWTLEMHKGQYRAVSSPDRILPLKESLCRVGVFLDYEAGDVSFYNMRDRSHIYTCPRSAFSVPVRPFFRLGCEDSPIFICPALTGANGVTVPEEGLTLHRVGTHQSL

This data set deals with the molecule itself. The data set is described as follows: SEC. On the technique in general: In gel filtration, larger molecules generally elute earlier.
As a reminder, the stoichiometry N is the number of molecules, sites or subunits per partner or assembly. B1: the “stoichiometry N” value stood at 2.

As to B2, the “stoichiometry N” value is 2.

With B3, the “stoichiometry N” value came out at 2.

With B4, the “stoichiometry N” value amounted to 2.

Consider B5, for which the “stoichiometry N” value is 2.

The record behind these values is paper PMC10330345 (Journal of immunology (Baltimore, Md. : 1950), 2023).
